Patent publication US20260028422A1 (CONCEPT TO MEDICINE BIOTECH, published 2026)

T1: human MerTK-his protein (human, UniProt Q12866 21-505)
T1 construct: extracellular domain; also called hMerTK-His; human MerTK protein
T1 sequence (looked up): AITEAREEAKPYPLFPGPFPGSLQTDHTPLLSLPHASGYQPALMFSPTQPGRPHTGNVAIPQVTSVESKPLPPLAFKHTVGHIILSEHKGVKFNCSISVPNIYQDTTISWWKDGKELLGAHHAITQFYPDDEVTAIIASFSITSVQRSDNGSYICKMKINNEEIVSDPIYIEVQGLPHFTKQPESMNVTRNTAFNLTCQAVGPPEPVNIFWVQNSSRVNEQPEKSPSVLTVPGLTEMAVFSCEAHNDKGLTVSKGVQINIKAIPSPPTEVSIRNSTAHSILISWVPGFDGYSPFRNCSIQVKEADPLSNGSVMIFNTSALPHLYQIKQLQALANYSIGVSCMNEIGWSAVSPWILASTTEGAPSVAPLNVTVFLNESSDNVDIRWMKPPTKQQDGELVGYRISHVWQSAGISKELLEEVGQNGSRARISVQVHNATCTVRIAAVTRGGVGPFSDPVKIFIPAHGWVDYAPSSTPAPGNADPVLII

T2: human MerTK expressed on cells (human, UniProt Q12866 21-999)
T2 construct: whole, on cells; also called CHO-K1-hMerTK; CHO-K1-MerTK
T2 sequence (looked up): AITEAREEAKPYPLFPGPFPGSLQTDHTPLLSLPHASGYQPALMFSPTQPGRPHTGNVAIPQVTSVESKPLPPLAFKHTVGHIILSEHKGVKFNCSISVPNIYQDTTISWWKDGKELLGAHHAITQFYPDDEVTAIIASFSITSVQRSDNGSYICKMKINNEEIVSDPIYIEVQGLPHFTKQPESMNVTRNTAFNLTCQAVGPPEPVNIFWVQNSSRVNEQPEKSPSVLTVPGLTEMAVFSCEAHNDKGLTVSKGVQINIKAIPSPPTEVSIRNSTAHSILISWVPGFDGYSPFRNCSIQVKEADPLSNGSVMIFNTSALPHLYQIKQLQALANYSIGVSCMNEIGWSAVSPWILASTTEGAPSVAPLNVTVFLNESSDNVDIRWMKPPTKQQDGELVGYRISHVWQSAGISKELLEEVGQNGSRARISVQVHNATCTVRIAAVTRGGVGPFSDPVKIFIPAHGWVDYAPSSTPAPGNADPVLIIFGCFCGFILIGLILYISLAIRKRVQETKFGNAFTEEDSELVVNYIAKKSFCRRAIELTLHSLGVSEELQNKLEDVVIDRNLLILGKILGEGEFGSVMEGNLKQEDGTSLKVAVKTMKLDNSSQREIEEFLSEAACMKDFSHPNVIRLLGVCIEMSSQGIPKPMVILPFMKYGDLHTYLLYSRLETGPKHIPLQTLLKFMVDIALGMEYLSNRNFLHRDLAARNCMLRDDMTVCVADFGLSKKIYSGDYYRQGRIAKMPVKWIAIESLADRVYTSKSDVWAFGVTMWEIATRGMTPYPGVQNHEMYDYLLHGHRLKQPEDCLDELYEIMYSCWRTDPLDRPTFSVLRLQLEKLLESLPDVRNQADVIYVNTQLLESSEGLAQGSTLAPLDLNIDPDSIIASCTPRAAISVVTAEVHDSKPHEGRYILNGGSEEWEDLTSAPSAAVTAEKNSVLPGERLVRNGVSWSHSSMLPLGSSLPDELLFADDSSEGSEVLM


Legend:
[1] = target: T1, human MerTK-his protein; experiment: SPR Biacore T200, antibody captured on Protein A chip
Method: The binding affinity of the MerTK chimeric antibodies to human MerTK-his protein was tested with Biacroe™ T200 using a capture method. Briefly, the antibodies were captured with a Pro-A chip. […] The antigen was allowed to dissociate for 420-800 s. Data analysis was carried out using Biacore™ T200 evaluation software.

[2] = target: T2, human MerTK expressed on cells; experiment: FACS on SK-MEL-5 cells expressing human MerTK, geometric mean
Method: To evaluate the binding properties on MerTK expressed on cells, the chimeric monoclonal antibodies were analyzed for their binding to human melanoma cell line SK-MEL-5 expressing MerTK by FACS analysis. Briefly, SK-MEL-5 cells were firstly incubated with 5-fold serially diluted chimeric mAbs starting at 20 nM at 4° C. for 30 mins. After washing by FACS buffer, the PE conjugated anti-human IgG secondary antibody was incubated with the cell-antibody complex in the wells at 4° C. for 30 mins to detect the antibodies those bound to the cells. The MFI of PE was evaluated by QuantAnalyzer 16.

[3] = target: T1, human MerTK-his protein; experiment: ELISA, plate coated with human MerTK-his, OD 450nm
Method: To evaluate the binding activity, the chimeric mAbs were subjected to ELISA test. Briefly, 96-well plates were coated with human or cyno MerTK-his protein at 2 μg/mL in PBS, 100 μL/well at 4° C. overnight, then blocked with 150 μL/well of 1% BSA. Five-fold dilutions of MerTK antibodies starting from 20 nM were added to each well and incubated for 1 hour at room temperature. The plates were washed with PBS/Tween-20 and then incubated with goat anti-human IgG Fe antibody conjugated with Horse Radish Peroxidase (HRP) for 30 minutes (mins) at room temperature. After washing, the plates were developed with TMB substrate and subsequent stop solution was added to complete the reaction. The signal from each well was read by spectrophotometer at OD 450 nm.
To evaluate the antigen binding activity, the humanized antibodies were subjected to ELISA test as described before.

Row | Binder | Kd [1] [nM] | koff [1] [s⁻¹] | kon [1] [M⁻¹ s⁻¹] | EC50 [2] [nM] | Top [2] [Geometric Mean] | EC50 [3] [nM]
1 | 252C12B10 chimeric monoclonal antibody (antibody, V domains shown) VH: QVQLQQPGTELVKPGASVKLSCKTSGYTFTSYWMHWMKQRPGQGLEWLGHINPSTGGSNYNEKFKSKATLTVDKSSNTAYMQLSSLTSEDSAVYYCARPRGFYGYSYWYFDVWGSGTTVTVSS VL: DIQMTQTTSSLSASLGDRVTISCSASQDINNYLNWYQHKPDGTIKVLIYFTSSLHSGVPSRFSGSGSGTEYSLTISNLEPEDIATYYCQQYSKLPPTFGSGTKLEIK | 5.33 | 0.00103 | 193000 |  |  | 
2 | 247E5A8 chimeric monoclonal antibody (antibody, V domains shown) VH: DVQLQESGPGLVKPSQSLSLTCSVTGYSITGGYYWTWIRQFPGNKLEWMGYISYDGDNNYNPSLKNRISITRDTSKNQFFLNLNSVTTEDTATYYCAREGGRLRTMDYWGQGTSVTVSS VL: QIVLTQSPAIMSASPGEKVTITCRASSSVNYMHWFQQKPGTSPKLWIYTTSNLASGVPARFSGSGSGTSYSLTISRMEAEDAATYYCQQRSSYPFTFGSGTKLEIK | 4.59 | 0.000596 | 130000 |  |  | 
3 | 276C2D1 chimeric monoclonal antibody (antibody, V domains shown) VH: QVQLQQSGPELVKPGASVKLSCKASGYTFTSYDINWVKQRPGLGLEWIGWIYPRDGYTKYNEKFKGKATLAVDTSSSTAYMELHSLTSEDSAVYFCARGYYSNLYYFDYWGQGTTLTVSS VL: EVVLTQSPPTMAASPGEKITITCSASSSISSNYLHWYQQKPGFSPKLLIYRTSNLASGVPARFSGSGSGTSYSLTIGTMEAEDVATYYCQQGRSIPLTFGAGTKLELK | 12.7 | 0.00223 | 175000 | 0.044 | 6950 | 
4 | 216G3D6 chimeric monoclonal antibody (antibody, V domains shown) VH: QVTLKESGPGILQPSQTLSLTCSFSGFSLSTSGMGVGWIRQPSGKGLEWLAHIWWDDDKHCNPALKSRLTISKDTSSNQVFLKIASLDTADTATYYCTQMTMTREFAYWGQGTLVTVSA VL: DIQMTQTISSLSASLGDRVTISCSAGQGISNYLNWYQQKPDGTVKLLIYYTSRLHSGVPSRFSGSGSGTDFSLTISNLEPEDIATYFCQQYSKFPYTFGGGTKLEIK | 0.852 | 8.97e-05 | 105000 |  |  | 
5 | 10F7D9 chimeric monoclonal antibody (antibody, V domains shown) VH: QIQLVQSGPELKKPGETVKISCKASGYTFTNYGMNWVKQAPGKGLKWMGWINTYTGEPTYADDFKGRFAFSLETSASTAYLQINNLKNEDLATYFCATYGHYAWFAYWGQGTLVTVSA VL: QIVLSQSPAILSASPGEKVTMTCRASSSVSYMHWYQQKSGSSPKPWIYATSNLASGVPARFSGSGSGTSYSLTISRVEAEDAATYFCQQWGTKPLTFGAGTKLELK | 4.29 | 0.00238 | 554000 |  |  | 0.024
6 | 85H8D5 chimeric monoclonal antibody (antibody, V domains shown) VH: QIQLVQSGPELKKPGETVKISCMASGYTFTTHGVTWVKQAPGQGLQRMGWINTYSGVPTYADDFKGRFVFSLETSANTAHLQINNLKNEDTATYFCARTNNYRYFDVWGTGTTVTVSS VL: QIVLSQSPAILSSSPGEKVTMTCRASSSVSYMHWYQQKPGSSPKPWIYATSNLASGVPARFSGSGSGTSYFLTISRVEAEDAATYYCQQWNTDPPTFGGGTKLEIK | 11.4 | 0.00664 | 582000 |  |  | 

Continued, values first:

Row | Kd [1] [nM] | koff [1] [s⁻¹] | kon [1] [M⁻¹ s⁻¹] | EC50 [2] [nM] | Top [2] [Geometric Mean] | EC50 [3] [nM] | Binder
7 | 9.85 | 0.00287 | 292000 |  |  |  | 252H9D5 chimeric monoclonal antibody (antibody, V domains shown) VH: QVTLRESGPGILQPSQTLSLTCSFSGFSLNTFGMGVGWIRQSSGKGLKWLAHIWWDDDKFYNPALKSRLTISKDTSKNQVFLKIANVDTTDTATYYCARIEGGLPYYYDYWGQGTPLIVSS VL: DIVMTQSQKIMSTSVGDRISVTCKASQIVGTNVVWYQQKPGQSPKALIYSTSYRYSGVPDRFTGSRSGTDFTLTISNVQSEDLANYFCQQYNSYPFTFGSGTKLEIK
8 |  |  |  | 0.12 | 4530 |  | h13B4.v16 benchmark antibody (antibody, V domains shown) VH: EVQLVESGEGLVQPGGSLRLSCAASGFSLSSYAMGWVRQAPGKGLEYVGIINSYGNTYYANWAKGRFTISRDNSKNTVYLQMGSLRAEDMAVYYCARDPGVSSNLWGRGTLVTVSS VL: DIQMTQSPSTLSASVGDRVTITCQASQNIYSGLAWYQQKPGKAPKLLIYGASKLASGVPSRFSGSGSGTEFTLTISSLQPDDFATYYCQATYYSSNSVAFGGGTKVEIK
9 | 3.08 | 0.000553 | 179000 | 0.039 | 7490 |  | 280C6A3 chimeric monoclonal antibody (antibody, V domains shown) VH: QVQLQQSGPELVKPGASVKLSCKASGYSFTTYDINWVKQRPGQGLEWIGWIYPRDGSTKYNEKFKGKATLTLDTSSNTAYMGLHSLTSEDSAVYFCARGYYDNLYYFDYWGQGTTLTVSS VL: EIVLTQSPTTMAASPGEKITITCSASSSVSSNYLHWYQQKPGFSPKLLIYRTSNLASGVPARFSGSGSGTSYSLTIGTMEAEDVATYYCQQGRIVPLTFGAGTKLELK
10 |  |  |  | 0.055 | 6960 |  | 293C2B7 chimeric monoclonal antibody (antibody, V domains shown) VH: QVQLQQSGPELVKPGASVKLSCKASGYTFTSYDINWVKQRPGQGLEWIGWIYPRDGYTKYKEKFKGKATLTVDTSSSTAYMELHSLTSEDSAVYFCARGFYSNLYYFDYWGQGTTLTVSS VL: EIVLTQSPTTMATSPGEKITITCSASSSISSNYLHWYQQKPGFSPKLLIYRTSNLASGVPDRFSGSGSGTSYSLTIGTMEAEDVATYYCQQGRSIPLTFGAGTKLELK
11 | 1.36 | 0.00029 | 214000 | 0.074 | 7490 |  | 300A5A3 chimeric monoclonal antibody (antibody, V domains shown) VH: QVQLQQSGPELVKPGASVKLSCKASGYTFTTYDINWVKQRPGLGLEWIGWIYPRDGYTKYNEKFKGKATLAVDTSSSTASMELHSLTSEDSAVYFCARGYYDNLYYFDNWGPGTTLTVSS VL: ENVLTQSPTTVAASPGEKITITCSASSIISSNYLHWYQQKPGFSPKLLIYRTSNLASGVPARFSGSGSGTSYSLTIGTMEAEDAATYYCQQGRSVPLTFGAGTKLELK
